Target: chemokine receptor CXCR5 (overexpressed on CXCR5-CAR T cells) (UniProt P32302)
Test: cell-based or functional assay

Chain of UniProt P32302 (P32302 whole entry): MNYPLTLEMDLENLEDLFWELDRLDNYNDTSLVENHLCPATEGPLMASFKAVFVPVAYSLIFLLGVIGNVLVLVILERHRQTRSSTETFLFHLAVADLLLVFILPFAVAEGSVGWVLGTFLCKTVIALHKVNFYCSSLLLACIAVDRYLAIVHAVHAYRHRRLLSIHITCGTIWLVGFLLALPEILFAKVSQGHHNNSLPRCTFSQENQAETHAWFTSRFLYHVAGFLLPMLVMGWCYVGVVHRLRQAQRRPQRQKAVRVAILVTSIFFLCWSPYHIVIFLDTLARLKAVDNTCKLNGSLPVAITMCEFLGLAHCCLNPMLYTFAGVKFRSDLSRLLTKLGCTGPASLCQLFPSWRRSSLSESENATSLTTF

radio-isotope signal at the CXCL13 positive tumor site, EGFR-CXCR5-CAR compared with EGFR-CAR, 72 h: 3 fold
radio-isotope signal at the CXCL13 positive tumor site, EGFR-CXCR5-CAR compared with EGFR-CAR, 168 h: 7 fold
Substance: CXCL13 stably transfected in A549 cells (A549-CXCL13) (from UniProt O43927 23-109) (ligand)

Reference: patent publication US20210214418A1
